Consider one molecule from PMC7498260, “The peroxisome counteracts oxidative stresses by suppressing catalase import via Pex14 phosphorylation” (eLife, 2020).

For this assay, the target named is Pex5L (Chinese hamster, ClPex5L) (Chinese hamster, UniProt Q920N5 1-640). In words: pull-down; GST-Pex14 variants (2 μg) on glutathione-Sepharose beads incubated with Pex5L (2 μg) together with EGFP-PTS1 (4 μg) or HA-catalase (4 μg), 2 hr at 4°C, 50 mM Tris-HCl pH 7.5, 0.15 M NaCl, 1% Triton X-100, 10% glycerol; bound fraction by immunoblot, quantified and normalised by GST-Pex14. Particulars: both partners purified. For orientation: In western blotting, separated proteins are transferred to a membrane and probed.

B1: HA-catalase (human) (enzyme)
chain: MADSRDPASDQMQHWKEQRAAQKADVLTTGAGNPVGDKLNVITVGPRGPLLVQDVVFTDEMAHFDRERIPERVVHAKGAGAFGYFEVTHDITKYSKAKVFEHIGKKTPIAVRFSTVAGESGSADTVRDPRGFAVKFYTEDGNWDLVGNNTPIFFIRDPILFPSFIHSQKRNPQTHLKDPDMVWDFWSLRPESLHQVSFLFSDRGIPDGHRHMNGYGSHTFKLVNANGEAVYCKFHYKTDQGIKNLSVEDAARLSQEDPDYGIRDLFNAIATGKYPSWTFYIQVMTFNQAETFPFNPFDLTKVWPHKDYPLIPVGKLVLNRNPVNYFAEVEQIAFDPSNMPPGIEASPDKMLQGRLFAYPDTHRHRLGPNYLHIPVNCPYRARVANYQRDGPMCMQDNQGGAPNYYPNSFGAPEQQPSALEHSIQYSGEVRRFNTANDDNVTQVRAFYVNVLNEEQRKRLCENIAGHLKDAQIFIQKKAVKNFTEVHPDYGSHIQALLDKYNAEKPKNAIHTFVQSGSHLAAREKANL
notes: catalase, human (HsCatalase); HA-Catalase amplified from pUcD3/HA-HsCatalase (Otera and Fujiki, 2012) and cloned into pGEX6P-1; The forward primer GST-HA-HsCatalase.BglFw starts with ATG GCT TAT CCA TAC GAC, i.e. the HA tag lies at the N-terminus of catalase; also called HA-HsCatalase; source: E. coli DH5α, GST fusion purified with glutathione-Sepharose beads, isolated by cleaving …
On to B1, for which the binding result was “binds”.
